Positions count from the first letter of the chain named. Names and notes keep the numbering of the source. Values joined by “and” are separate entries in the source; they are usually repeats but may differ in a detail not shown here. Identical values can stand only once.
How the values were obtained:
[1] = target: the molecule itself; test: scanning Number and Brightness
[2] = target: the molecule itself; test: scanning Number and Brightness; remark: listed apart in the source
SEC = target: the molecule itself; test: SEC

B1: GFP-Mrr D203A catalytic mutant (enzyme)
chain: MTVPTYDKFIEPVLRYLATKPEGAAARDVHEAAADALGLDDSQRAKVITSGQLVYKNRAGWAHDRLKRAGLSQSLSRGKWCLTPAGFDWVASHPQPMTEQETNHLAFAFVNVKLKSRPDAVDLDPKADSPDHEELAKSSPDDRLDQALKELRDAVADEVLENLLQVSPSRFEVIVLDVLHRLGYGGHRDDLQRVGGTGDGGIAGVISLDKLGLEKVYVQAKRWQNTVGRPELQAFYGALAGQKAKRGVFITTSGFTSQARDFAQSVEGMVLVDGERLVHLMIENEVGVSSRLLKVPKLDMDYFE
[1]
  stoichiometry N: 2

B2: GFP-Mrr fusion protein (Mrr, Methylated adenine Recognition and Restriction, fused with GFPmut2) (enzyme)
chain: B1 chain with A203D
[2]
  stoichiometry N: 2

B3: Strep-tagged GFP-Mrr (enzyme, Escherichia coli K-12, UniProt P24202 1-304, looked up)
chain: B1 chain with A203D
SEC
  stoichiometry N: 4 and 2
